# US20180011085A1
# Target: purified recombinant M1 protein from influenza virus labeled with His-tag (influenza virus)
# Assay: Western blot of 0.1-10 ng M1-HisTag, HRP-conjugated antibody 1:2000, chemiluminescence
substance,measurement,value
"antibody against His-tag conjugated with horseradish peroxidase (Sigma, #A7058-1VL)",limit of detection,500 pg
